Source: article PMC3353271

Biological target: S. cerevisiae enolase (S. cerevisiae (endogenous in strain R11258)) (UniProt P00925)
Assay: SEC

- stoichiometry N: 2
Substance: S. cerevisiae enolase (from UniProt P00925 1-437) (enzyme)
